In article PMC11633101:

Biological target: bovine NECTIN1 with 6×his tag, purified from CHO cells (bovine)
Experiment: SPR; Biacore 8K, CM5 chip, 25°C, single-cycle mode, PBS; NECTIN1 and CD46 captured on the chip, serial dilutions of BVDV E2 injected; regeneration with glycine pH 2.5

Substance: BVDV E2 protein with 6×his tag, purified from 293F cells (from UniProt P19711 693-1066) (natural protein)
- Kd: 3.47 pM
